Data on one molecule can be found in publication PMC9568494, “A portable electrochemiluminescence aptasensor for β-lactoglobulin detection”.

The target in this data set is T1, beta-lactoglobulin (β-LG) (Bos taurus (cow)?, UniProt P02754 17-178).
T1 sequence: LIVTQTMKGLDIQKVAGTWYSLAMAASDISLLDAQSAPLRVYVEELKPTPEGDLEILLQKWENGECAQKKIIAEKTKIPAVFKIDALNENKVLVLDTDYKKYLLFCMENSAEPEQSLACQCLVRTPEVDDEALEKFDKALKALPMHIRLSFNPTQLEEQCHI
Nature of the data set: electrochemical (chronoamperometric) titration on gold screen-printed electrode, immobilized β-LG, streptavidin-HRP/TMB; 2 mM MgCl2 in BS-LG selection buffer; aptamer 40-100 nM; Kd read as inflection point; Kd assay: BS-LG, 50 mM Tris pH 7.4, 150 mM NaCl, 2 mM MgCl2 (wash and HRP step; aptamer diluent not stated), 30 min incubation, temperature not stated. The note with it: protein: commercial; chain copies: 2; label: 5'-biotin.

B1: BLG14 aptamer (ssDNA)
DNA: GACGATCGGACCGCAGTACCCACCCACCAGCCCCAACATCATGCCCATCCGTGTGTG
For B1, the dissociation constant Kd was determined as 56 nM.
